B1: Tyrosine-protein kinase JAK2 (Mus musculus), Q62120 (parent)
chain: MGMACLTMTEMEATSTSPVHQNGDIPGSANSVKQIEPVLQVYLYHSLGQAEGEYLKFPSGEYVAEEICVAASKACGITPVYHNMFALMSETERIWYPPNHVFHIDESTRHDILYRIRFYFPHWYCSGSSRTYRYGVSRGAEAPLLDDFVMSYLFAQWRHDFVHGWIKVPVTHETQEECLGMAVLDMMRIAKEKDQTPLAVYNSVSYKTFLPKCVRAKIQDYHILTRKRIRYRFRRFIQQFSQCKATARNLKLKYLINLETLQSAFYTEQFEVKESARGPSGEEIFATIIITGNGGIQWSRGKHKESETLTEQDVQLYCDFPDIIDVSIKQANQECSNESRIVTVHKQDGKVLEIELSSLKEALSFVSLIDGYYRLTADAHHYLCKEVAPPAVLENIHSNCHGPISMDFAISKLKKAGNQTGLYVLRCSPKDFNKYFLTFAVERENVIEYKHCLITKNENGEYNLSGTKRNFSNLKDLLNCYQMETVRSDSIIFQFTKCCPPKPKDKSNLLVFRTNGISDVQISPTLQRHNNVNQMVFHKIRNEDLIFNESLGQGTFTKIFKGVRREVGDYGQLHKTEVLLKVLDKAHRNYSESFFEAASMMSQLSHKHLVLNYGVCVCGEENILVQEFVKFGSLDTYLKKNKNSINILWKLGVAKQLAWAMHFLEEKSLIHGNVCAKNILLIREEDRRTGNPPFIKLSDPGISITVLPKDILQERIPWVPPECIENPKNLNLATDKWSFGTTLWEICSGGDKPLSALDSQRKLQFYEDKHQLPAPKWTELANLINNCMDYEPDFRPAFRAVIRDLNSLFTPDYELLTENDMLPNMRIGALGFSGAFEDRDPTQFEERHLKFLQQLGKGNFGSVEMCRYDPLQDNTGEVVAVKKLQHSTEEHLRDFEREIEILKSLQHDNIVKYKGVCYSAGRRNLRLIMEYLPYGSLRDYLQKHKERIDHKKLLQYTSQICKGMEYLGTKRYIHRDLATRNILVENENRVKIGDFGLTKVLPQDKEYYKVKEPGESPIFWYAPESLTESKFSVASDVWSFGVVLYELFTYIEKSKSPPVEFMRMIGNDKQGQMIVFHLIELLKSNGRLPRPEGCPDEIYVIMTECWNNNVSQRPSFRDLSLRVDQIRDSIAA
partner: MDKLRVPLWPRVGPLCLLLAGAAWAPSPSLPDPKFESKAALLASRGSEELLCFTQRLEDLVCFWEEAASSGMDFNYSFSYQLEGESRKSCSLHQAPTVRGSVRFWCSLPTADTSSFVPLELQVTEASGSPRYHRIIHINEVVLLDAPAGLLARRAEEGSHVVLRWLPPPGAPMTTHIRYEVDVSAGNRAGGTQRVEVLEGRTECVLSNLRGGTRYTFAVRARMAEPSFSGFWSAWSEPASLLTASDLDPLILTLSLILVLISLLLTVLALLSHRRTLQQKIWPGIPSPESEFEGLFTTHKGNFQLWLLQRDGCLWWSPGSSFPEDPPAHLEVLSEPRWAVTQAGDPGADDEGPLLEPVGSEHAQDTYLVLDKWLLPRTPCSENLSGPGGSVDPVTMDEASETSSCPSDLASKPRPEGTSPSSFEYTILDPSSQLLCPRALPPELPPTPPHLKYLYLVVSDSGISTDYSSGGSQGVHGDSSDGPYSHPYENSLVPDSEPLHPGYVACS

Variants of: B1
Conditions: with epor_mouse Epor

Q: For T875N, which “effect of a mutation on the interaction” value is on record?
A: increasing interaction

Variants of: B1
Conditions: with epor_mouse Epor
Remark: another data set of the same source

Q: Which “effect of a mutation on the interaction” value does the source give for V617F here?
A: increasing interaction

Variants of: B1
Conditions: with epor_mouse Epor
Remark: another data set of the same source

Q: Which “effect of a mutation on the interaction” value does the source give for K539L here?
A: increasing interaction

— IntAct's records for PubMed 21362419
